Reference: paper PMC3484714 (Journal of the American Chemical Society, 2012)
Like-named read-outs stand apart in the source and are kept apart here.

B1: methyltransferase (MeTr) from Moorella thermoacetica, homodimer (enzyme, UniProt Q46389 1-262, looked up)
chain: MLIIGERINGMFGDIKRAIQERDPAPVQEWARRQEEGGARALDLNVGPAVQDKVSAMEWLVEVTQEVSNLTLCLDSTNIKAIEAGLKKCKNRAMINSTNAEREKVEKLFPLAVEHGAALIGLTMNKTGIPKDSDTRLAFAMELVAAADEFGLPMEDLYIDPLILPANVAQDHAPEVLKTLQQIKMLADPAPKTVLGLSNVSQNCQNRPLINRTFLAMAMACGLDAAIADACDEALIETAATAEILLNQTVYCDSFVKMFKTR

Experiments:
[1] = target: the molecule itself; assay: SAXS
[2] = target: B1; assay: SAXS
[3] = target: B1; assay: ITC
[4] = target: B1; assay: SAXS; remark: listed apart in the source

Row | Binder | stoichiometry N [1] | stoichiometry N [2] | KD of the first binding event [3] | KD of the second binding event [3] | dH (1:1 complex) [3] | stoichiometry N [4]
1 | B1 | 2 |  |  |  |  | 
2 | corrinoid iron-sulfur protein (CFeSP) from Moorella thermoacetica, heterodimer of large and small subunit (complex) chain 1: MPLTGLEIYKQLPKKNCGECGTPTCLAFAMNLASGKASLDSCPYVSDAAREALDAAAAPPIAKVVLGAGPTAVEMGDETELFRHDKRFYHETAIAIQVSDNLSSEELKAKVEAINGLNFDRVGQHYTIQAIAIRHDADDPAAFKAAVASVAAATQLNLVLMADDPDVLKEALAGVADRKPLLYAATGANYEAMTALAKENNCPLAVYGNGLEELAELVDKIVALGHKQLVLDPGARETSRAIADFTQIRRLAIKKRFRSFGYPIIALTTAANPLDEVLQAVNYVTKYASLVVLRTDAKEHLLPLLSWRQNLYTDPQVPIRVEEKLNEIGAVNENSPVYVTTNFSLTYYSVEGEIESTKIPSYLLSVDTDGLSVLTAYADGKFEAEKIAAVMKKVDLDNKVKRHRIIIPGAVAVLKGKLEDLTGWEVIVGPREASGIVAFARANLAS chain 2: MAVQILRDRSRAAVQKVVLGATKDQGGTRSHTIVVGGDAALPFHHFEGEIVNRPVIGMEVQDIVPDWPDVLKDPFTDVINEPGRWAQKCVAEYGADLIYLKLDGADPEGANHSVDQCVATVKEVLQAVGVPLVVVGCGDVEKDHEVLEAVAEAAAGENLLLGNAEQENYKSLTAACMVHKHNIIARSPLDINICKQLNILINEMNLPLDHIVIDPSIGGLGYGIEYSFSIMERIRLGALQGDKMLSMPVICTVGYEAWRAKEASAPVSEYPGWGKETERGILWEAVTATALLQAGAHILLMRHPEAVARVKENIDQLMVSNAY |  | 1 CFeSP heterodimer per MeTr homodimer | 7.7 µM | 111 µM | 4.9 kcal/mol | 2 CFeSP heterodimer per MeTr homodimer
